Biological target: the molecule itself
Assay: negative-stain transmission electron microscopy

B1: light-dependent protochlorophyllide oxidoreductase (LPOR) isoform AtPORB (enzyme, Arabidopsis thaliana)
chain: QTAATSSPTVTKSVDGKKTLRKGNVVVTGASSGLGLATAKALAETGKWNVIMACRDFLKAERAAKSVGMPKDSYTVMHLDLASLDSVRQFVDNFRRTETPLDVLVCNAAVYFPTAKEPTYSAEGFELSVATNHLGHFLLARLLLDDLKKSDYPSKRLIIVGSITGNTNTLAGNVPPKANLGDLRGLAGGLNGLNSSAMIDGGDFDGAKAYKDSKVCNMLTMQEFHRRFHEETGVTFASLYPGCIASTGLFREHIPLFRALFPPFQKYITKGYVSETESGKRLAQVVSDPSLTKSGVYWSWNNASASFENQLSEEASDVEKARKVWEISEKLVGLA
binding result: binds
